This note sets out measurements from US20230020089A1.

Experiment [1] deals with […] presented by HLA-A*0201 (EBV; human). Put plainly: cell-based or functional assay.
Experiment [2] has as its target […] presented by HLA-A*0201 (HCMV; human). Put plainly: cell-based or functional assay.

With “TCR recognizing […] presented by A*0201 (PDB #3REV)”, in experiment [1], the luciferase induction, reporter T cells + U-87 APCs, short cassette 9AA (relative to uninfected controls) is 12; the luciferase induction, reporter T cells + U-87 APCs, short cassette 17AA (relative to uninfected controls) was determined as 10.3; the luciferase induction, reporter T cells + U-87 APCs, short cassette 25AA (relative to uninfected controls) stood at 14.6; the luciferase induction, reporter T cells + U-87 APCs, short cassette AAY (relative to uninfected controls) was determined as 11.3. For the same substance, in experiment [1], the luciferase induction, reporter T cells + U-87 APCs, short cassette DPP (relative to uninfected controls) turned out to be 1.1; the luciferase induction, reporter T cells + U-87 APCs, short cassette RR (relative to uninfected controls) is 8.5; the luciferase induction, reporter T cells + U-87 APCs, targeting cassette A amounted to 6.1; the luciferase induction, reporter T cells + U-87 APCs, targeting cassette B is 6.3. Besides, in experiment [1], the luciferase induction, reporter T cells + U-87 APCs, targeting cassette C is 7.6; the luciferase induction, reporter T cells + U-87 APCs, targeting cassette D was 7; the luciferase induction, reporter T cells + U-87 APCs, targeting cassette E came out at 5.9; the luciferase induction, reporter T cells + U-87 APCs, targeting cassette F was determined as 3.7. In experiment [1], the luciferase induction, reporter T cells + U-87 APCs, targeting cassette G is 7.6; the luciferase induction, reporter T cells + U-87 APCs, targeting cassette H came to 5.4; the luciferase induction, reporter T cells + U-87 APCs, targeting cassette J came out at 6.4; the luciferase induction, reporter T cells, short cassette AAY is 11.3.

Take “TCR recognizing […] presented by A*0201 (PDB #5D2N)”: in experiment [2], the luciferase induction, reporter T cells + U-87 APCs, short cassette 9AA (relative to uninfected controls) is 33.6; the luciferase induction, reporter T cells + U-87 APCs, short cassette 17AA (relative to uninfected controls) amounted to 42.8; the luciferase induction, reporter T cells + U-87 APCs, short cassette 25AA (relative to uninfected controls) was found to be 42.3; the luciferase induction, reporter T cells + U-87 APCs, short cassette AAY (relative to uninfected controls) worked out at 24.5. Further, in experiment [2], the luciferase induction, reporter T cells + U-87 APCs, short cassette DPP (relative to uninfected controls) amounted to 0.9; the luciferase induction, reporter T cells + U-87 APCs, short cassette RR (relative to uninfected controls) is 21.7; the luciferase induction, reporter T cells + U-87 APCs, targeting cassette A turned out to be 32.5; the luciferase induction, reporter T cells + U-87 APCs, targeting cassette B turned out to be 31.8. Besides, in experiment [2], the luciferase induction, reporter T cells + U-87 APCs, targeting cassette C stood at 29.1; the luciferase induction, reporter T cells + U-87 APCs, targeting cassette D came to 29.1; the luciferase induction, reporter T cells + U-87 APCs, targeting cassette E came to 28.4; the luciferase induction, reporter T cells + U-87 APCs, targeting cassette F is 20.4. In experiment [2], the luciferase induction, reporter T cells + U-87 APCs, targeting cassette G amounted to 35; the luciferase induction, reporter T cells + U-87 APCs, targeting cassette H worked out at 30.3; the luciferase induction, reporter T cells + U-87 APCs, targeting cassette J turned out to be 38.1; the luciferase induction, reporter T cells, short cassette AAY is 24.5.
